This assay concerns the target CD3ζ subunit of the T cell receptor (TCR) in nonactivated Jurkat T cells (human (endogenous in Jurkat)) (UniProt P20963). Kind of assay: single-molecule localization microscopy (DNA-PAINT with qPAINT counting); nonactivated Jurkat T cells, TIRF; stepwise model: Ka,j of a monomer joining a cluster of j-1 proteins, from the distribution of cluster sizes, j = 2 to 8, average of eight cells.

The substance “CD3ζ subunit of the T cell receptor (TCR) in nonactivated Jurkat T cells (from UniProt P20963-1 22-164)” yielded a log Ka,j (stepwise association of a monomer to a cluster, j = 2-8) (log, μm^2 scale) of -1.4.

(Values after article PMC11528428.)
